Experimental data: US20110318377A1

Target: Tat/FLAG (wild type HIV-1 Tat with FLAG tag, expressed in cells) (HIV-1)
Experiment: cell-based or functional assay

Substance: endogenous Set9 (in Jurkat A2, HEK293 and HeLa cells) (from UniProt Q8WTS6 1-366)
- decrease in Tat transactivation of the HIV LTR (luciferase) in HeLa cells after Set9 siRNA: 50 percent
